B1: 28 (protein)
chain: GVLSFKFNTIKNLNVHLEIVMYGLFHIYNYKLNFKIVCDNGYYYIFNDCFPCPQGYYNNINIIKTNVDFINKCMKCDKNKATLIEKSSNKADCLCNFGYEYIKNPADPQEFICSPCTRGMYKNTISNKLCDGNACTGNFATSVIGAKNIIESTCFCKPGFYVTYDYRGIEFCKECLLHFYCPGNVIGIQKCPIHNEALQPEKRINFDSLHGCFCKKGYEPINILNINKAGTRDEHYYKLFHNTYADKFKDINPKHICMECDIGYYKDTISFQPCKKCPNQATNKKYGSTSLNDCNTCHSGYYKNINKACSTCLPNHFCVGDLLQKDLDKYSGDAVICPNNAVTKKPYTQNGAFKDCLCIEGYIKNYQESYNINDHCKLVPLNFYKDSISNDLGTPCPVNSITLNVGAKTINECLCNKGYFYNVKKQQCEECPIGFYCPKISSKNNIKKPIKCPKNSASIKKGMYISNNCQCNFGYTKYIHIDNNQALLNNNIIKYDNKKTNKMFYSFLSNNYYNYKNKINYINKAYNNRNLILLRNIQNKNAIYKKKKRKNVLCIRCPPMTYKGTISNDPCEACPLNSRTIESVNNAHIFFCLCNPGYYLHEQMCKPCSFSKLYCTGENIYIISQSLYETALQEIKNIYVSKNNDMYKMILMNLALYDYSQNVNINNNNNNNNNNNIHNNNIYNIYNSINHYNNDNNIFVNPIVNNKLKHHNNIIYPPYNLLNSQVDTIPFLKKKYGNNINIANILDLNSLYKEPIQNNNNLNTILKSFFHKDNENLIYVKYQNFVTCGKNTVIPLGVDSSYTFDDCKCKKGYYLKSKDINNAIKICEPCKTGTFKNYVGDDTFCLHCPPKSTSLEGSIYPTHCFCKGGFFYSKGYCLECLEGALCKGGLNKNVMQRMKFNMENILITEKDHIKPHSNKNYYLDKSVIDVVDVSEWKFIKCPIKGACLEKNKCHKSMNNYLCIECAKGYTNSFMTSLCVKCPNNIANM
modifications: bait human Fc-tagged dimer
B2: 16 (protein)
chain: NNLDKNKNFIQYKNFKKNKAYKYKNNNNNIIIINSHSHSNSHSNSHSHSNSHSNSHSHSNSHSNSHSHSNSHSHSHSNSHSNSHSHSSTQNSLYHDTNQANFLKPTSFFLYKHHVYFNQKYKKDPNILNKLKVPRNHIFHINKCDLNYYIQNYEFFFFFPDYYEYSHLYIRLDKLFYFQRCGCDTNIKKTKKRNQNIFNNMLGMKEKDTYLQNEICDIYWNYLKDDNTYDKYNFAIINYIKNIIKKMYRYLYIYKVFVLKQFYRIVYYNQGIRNFYYMLFSYIYNKGSIIYNYNQMYFKKHRKKQTIIRSKRFMNEHIKEEDVDYNIVKDEKDKSIQSTEQKSYLKNNAIQYFQCFLDKAMENKNAENELDKWIDPQSKSCYCSEEFAEPCTSEDLVDINNINQIMDNAFCEYNNNDNNNNDNNKNNNNNINNIINIYDNNILGDNVKNIFVALSEYKILQCNDKEKKDIIKKEQLYNYCKYGLNIWDNKNMYDYLNCLNVISYNKKDDKTCIRKCENIKKLCNIVAQFYSFEVCKKYYENNKHTEDIYINNFKYFSDHCKYIDPTNRGLVLCKHKNVECVYSQWSEWSTCSKTCIENEYDTNSARTRTRILLNKFEVPSKSCSFIINEKNNLMDINFCSYLPFCNKNNDMKKKDDERIMPFVISIKEIEKLNTLKYLNNDDNDLLNENYKNYESVHKNNECKVTDMYQYEYAISYNEKNKACSCPNNQAPCYFKDIYNSESWKKSLHILCKHNPHINVITADYIIIDCNMAISIKKKEIAVNTYLAMTFNCHSDIFQYIFCAKNIQSIRTN
modifications: bait human Fc-tagged dimer
B3: 12 (protein)
chain: SDTFRVFEDFDVRRKNKIWCCNLNHEKSYFHNKAINTAYKNRVLKESILLNLDLDMKKYKDNIITRKKTPENIYKEIYENNYEMKYDEDIPNNMAEEKRDEKEVIEHLEIDEKNGKQYKSDINKPVSLSHLKQYKNIYVNNNNKINKKKSIDKHLPSYNLERKNNKYLNFLLVDNRNEAYTFMVPMKFYINHEMYNIADEEYNKLMEDNSVDVYLNNILVEYKYENFEIKEGEVDGEVEGEGEVEGEVEGEVKGKVVEGIENNMNEEEKYNKDNKDKENQINSNGQDENTEFQENDNNDAVIMKYT
modifications: bait human Fc-tagged dimer
B4: 17 (protein)
chain: ANIDKVNLARNFLFSYIQKNLYYTRSYFNVAQLFSTLQIFLDQFCYPGLGRCIPYINKCLCYDKSKMKPKTAKSCLNNCGVISLCSGYPYGPGYKIIPNEFINNRKVVTCVVSSLQNKLDRTCGYNKKLRFNENKIYCIPYDLLDMNLAGIYCVNNNKEKIFCKGFLRQIYTNLKEYEILDIAYHNFILNNPCNEHIYDDGTNYKGCQDTSISGRKCLHWNSLNMEKVLPYLYLHNYCRNPEGLSYIYCYVDNNGIITREYCKSRSNIIFNNIAYSREKYFHFDITMKNVADFRIKLDNKPCNQRYFVNNHRINEFTYDKRNYAYHNINGEIALTISFKNFAYNTYYDYKLYICACFKYYYTNDLVICSTDNYKVEIGSFLITKAYTDKDTNVFYLNRQYNLAFNINYEIIKNEIYIIKGDYAYECNHLRIIGNDNIHMITNMNILFNYYKNQNFQKIHPPLEPNKKYSYIYSYFDPILDLSSILRKNELFINPQSSNIIKGYQNVDNLNNDGKTNSKSKFAKNKHMLQNGAP
modifications: bait human Fc-tagged dimer
B5: 52 (protein)
chain: AEEHEITHKTYFDITIDDKPLGRIVFGLYGKVAPKTVENFVSICKGTVVDGKMLHYTNSIFHRIIPNFMAQGGDITNFNGAGGLSIYGKKFEDENFKVNHAKRGLLSMANAGKNTNGAQFFILFIPTPWLDGRHVVFGEVVEGLDKLVHIEAVGTDSGEPLKRVLVKESGELPL
modifications: bait human Fc-tagged dimer
B6: 18 (protein)
chain: KENKNDNFLNGIYKLQNIWRNTALGELDLKKANIENAEGIIEKFNDANKADFNQHPHFRSKLSFLEHKNHKDMGIVTNHQNKDHKKNEYTSEEIIDMKPQLASQEMWRKGENFYMHGATNTNEQNDDEDLFESFHKNHNSNIKINSPCFDLQDKEMCSNNKECFYDDAYKACFQNCALVNEKKCSLYSECKHTPNGCQNEGYLNIQVFGSNLGGDVRACELFESEGSCYLMEKLFKKLSEEKKETSFNCVWISYKHELRSYDDENEPKENNDNIVALENKNKYMYMNNVESIHNNHHLENPYHEDIKHNKHKSFNYHVLSSSVPRQIAKNEKFLSLLQLNLKGKKKEKNKKKKKDDEDDDDIDEEDDDLDIEGKNNEFNADEEENSKDLKNNNIDDNEEDGTTDEDDLFNNKKKKKNNNNNNANNNNNKNKNKQNTNKKNNKIINEFDDDIDEVSEENLLNDEEKKQNKIKNKNINEANNIAENNEIEISSKDLTEQYEDKYNYDKKNNMGTNNNFNNANTFANNKNNLHNKYINHASHTQNEKDILKHNFYGKDNNGAYEIIKVETHICANLNEKPNPSTLLEGALIAENEAQLQKIKKKYKVTDNEICVRPTNSAYVSLIPDKKYYLLGEKIEFKCQEGYKIIGTTNIGVCTGRNIISPNIACESLTNFDDVEKDNIQKMNNIINS
modifications: bait human Fc-tagged dimer
B7: 41 (protein)
chain: VYNVKTQKNEGIIIDKEGKENDNGNSDRNTPNNNNRLNRMTLNKEMYEKHNKMNNEEDNNKNINYDLSNLKDGMKKKHFGSNSAEDKTNKKSSINSVLEKYQHTKHEEKNLQNLNKNMMTHENDDSMKSIFISEESFESAKNVCQFIVMQNDYFKNFCNIASLVYDIEKLKKNNHKIYEEILSNSYENNNGAKFKLLKEINHAKVFKEMDNTNPKFSILFLYDKFCYGGIPLACSNLMKYDNVFDINEQSETTNKPDDNVNMEEMENYIINQAGMENGFEENVADLTQE
modifications: bait human Fc-tagged dimer

Each binder was assayed against FGFR4 ectodomain (Homo sapiens, UniProt P22455) (assay: AVEXIS normalised luminescence).
In the case of B1, the binding score is reported as 0.857. B2 showed a binding score of 1.5. B3 was tested, and the binding score was 0.891. B4 was tested, and the binding score was 0.943. B5 gave a binding score of 1.22. For B6, the binding score was 1. B7 was tested, and the binding score was 1.23.
